How the values were obtained:
Assay in all cases: pull-down binding Z-score (relative to library population); higher = stronger binding
[1] = tested on: G-clamp-N3 (biotin conjugate); settings: RNA library: Library-1 (pre-miRNA loops + repeats)
Summary of the method: (§1)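 The RNA library, end-labelled with Cy5 or Cy3, was heat-folded in phosphate/NaCl/KCl buffer, and 1 μg was incubated at 25 °C for 60 min with streptavidin beads carrying 100 pmol of biotin-conjugated small molecule. Hot SDS released the bound RNA, which was then hybridised to a DNA barcode microarray for 20 h at 55.5 °C. For scoring binding, signal from beads alone was subtracted, replicate barcoded probes were averaged after discarding the highest and lowest, and each value was turned into a Z-score from the library mean and standard deviation.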

[2] = tested on: TO-3-N3 (biotin conjugate); settings: RNA library: Library-2
Summary of the method: as §1

[3] = tested on: TO-3-N3-2 (biotin conjugate); settings: RNA library: Library-2
Summary of the method: as §1

[4] = tested on: TO-N3 (biotin conjugate); settings: RNA library: Library-2
Summary of the method: as §1

[5] = tested on: TO-N3-2 (biotin conjugate); settings: RNA library: Library-2
Summary of the method: as §1

Sequence	pull-down binding Z-score [1]	pull-down binding Z-score [2]	pull-down binding Z-score [3]	pull-down binding Z-score [4]	pull-down binding Z-score [5]
GUUUGCAAGGGGUGUUUCUGUCCAUGGUCAGGC [hsa-mir-4283-1_4283-2]	1.19	0.578	0.154	0.778	0.725
GGUACUUUAUAAUUUCAAAAAGUCCC [hsa-mir-361]	-0.194	-1.13	-0.356	-1.51	-1.41
UAGGUUGUUAUUUAAUCCAACU [hsa-mir-190a]	-1	-0.24	-0.00409	-0.267	-0.661
GUGGCCUUGGACAAGCCUCUUGGUUAC [hsa-mir-4672]	-0.419	-0.457	-0.502	-0.141	0.885
GCUUGCUGUUCCUCUCAACAGUAGUCAGGAAGC [hsa-mir-129-1]	-0.381	-0.169	-0.186	-0.219	-0.245
ACUCCUAGGUCACGGAAGU [hsa-mir-6838]	-0.404	-0.255	-0.33	-0.23	-0.0545
ACUUUUUUUUUUUUUUUUUUUAAUGUUAAAAGU [hsa-mir-5588]	0.463	-0.429	0.823	-0.82	-0.107
CGGGAACCUGCCUCCCG [hsa-mir-596]	-0.566	0.264	-0.195	0.0562	-0.232
UUUACUUUUGGCCUCAAGUCAUUGCAGUAAA [hsa-mir-4796]	-0.453	-0.696	-0.635	-0.832	-1.18
CAGCUUGCUCUGCUUU [hsa-mir-4303]	0.072	-0.387	0.0132	-0.189	0.0746
AUGGAUAUGGGAACUGUGAUGUCCA [hsa-mir-4768]	1.17	-0.305	0.0446	-0.136	0.232
UCAGCCCCAUAUGUAUCUGAAGGCUGA [hsa-mir-5694]	-0.92	-0.404	-0.286	-0.337	0.0924
UGUUUCUUUAUUGAGGACGAAACA [hsa-mir-329-2]	0.973	-0.144	-0.343	-0.5	-0.89
GGCGACUGGUGUCUAAUUUGUUUGUC [hsa-mir-4429]	0.682	-0.313	-0.265	-0.37	-0.308
CUUUUAGAGUAAUUGUGAAACUGUUUUUCAAAG [hsa-mir-562]	0.748	-0.531	-0.0695	-0.769	-0.462
AGAUCACUUUUCUGCACUGGACAGUGAUCU [hsa-mir-3686]	-0.182	-0.65	-0.462	-0.904	-0.833
AAUCCCUCUCUUUCUAGUUCUUCCUAGAGUGAGGAAAA [hsa-mir-320b-1]	-1.69	-0.294	-0.166	-0.325	-0.55
GCUUGGAGCCUUGGUAGGGAAGCAAGCUGAGGAGAUAGGA [hsa-mir-7154]	1.23	1.22	0.627	1.57	1.92
GCCAGCAACCUGAUUACCCCUCUUUGGC [hsa-mir-6851]	-0.819	-0.53	-0.495	-0.552	0.533
CGUAUGUGUAUAUAAAUGUAUACG [hsa-mir-1277]	0.912	-0.965	-0.547	-1.29	-1.36
AUUUCUGUGUUCGUUAGGCAACAG [hsa-mir-221]	0.12	0.785	0.283	1.07	0.324
AGAUCUGUCUCUGAUUGUUUCCAAGAUCU [hsa-mir-6888]	-0.781	0.132	0.0544	0.136	0.0817
AGACUCUGGAUUUUACACUUGGAGUG [hsa-mir-887]	-0.423	-0.461	-0.196	-0.207	-0.0223
GGUAGGUUACGUCAUGCUGUUCUACC [hsa-mir-140]	0.599	-0.251	-0.139	-0.0663	0.193
GCUACUGUCUGCACCUGUCACUAGCAGU [hsa-mir-130a]	-1.49	-0.279	-0.0477	1.12	1.58

Sequence	pull-down binding Z-score [1]	pull-down binding Z-score [2]	pull-down binding Z-score [3]	pull-down binding Z-score [4]	pull-down binding Z-score [5]
GGUGGGUGCC [hsa-mir-1268b]	-0.587	-0.142	-0.32	-0.332	-0.075
UGUUGGCAGCCCAAGAUGACA [hsa-mir-4686]	-0.568	0.375	-0.0148	0.581	0.58
CUCAGGACAGCGGGUGUCAGCUUGCCUGAC [hsa-mir-6859-1_6859-3_6859-2_6859-4]	-0.377	0.665	0.241	1.12	1.4
AUCCAGUCCACUUAAUUCUGAGAAAGUCCACAGACUGGAUCGGGUCUUGGAUUUUAGCUGGAUUCAU [hsa-mir-6082]	-0.0473	-0.796	-0.223	-0.258	0.4
UUUUGCCAUUACUUUCAAUGGCAAAA [hsa-mir-548aa-2]	-0.284	0.127	-0.23	-0.176	-1.08
UUGGGGAGGAGCUAAGAAGCCCCUACAGGGCCCAG [hsa-mir-4257]	1.25	0.138	0.24	0.56	1.05
GCUGCAGGCAAAGCUGGGG [hsa-mir-711]	-0.426	0.431	0.123	0.901	1.07
GGCUUUGGCAUCUAUGAAAGCC [hsa-mir-4755]	0.33	0.45	-0.302	0.507	-0.233
AGUAUGGAUUAAAUUUAUAUUUUCCUCGAUACU [hsa-mir-8084]	0.482	0.413	0.212	0.316	-0.547
AAAGAGGUGUUUCUACUCCAU [hsa-mir-3690-1_3690-2]	-1.18	-0.497	-0.0114	-0.517	-0.235
GCAGAGCAGGACGCCGCUGCUGC [hsa-mir-8072]	-0.0779	0.701	0.0817	0.817	1.65
AGGCAUUAGGAUCCUUAUUCUUGCCU [hsa-mir-4788]	-0.175	-0.238	-0.442	-0.559	-0.364
CCCAAACUUGGAGCACUUGACCUUUGGC [hsa-mir-4687]	-1.02	0.611	0.268	0.815	0.804
AUGAUAUAUUGUGAGAGCCAUGUCAU [hsa-mir-6718]	0.0796	0.0536	-0.0702	-0.0603	-0.393
UGUUCAGUGGGAUUUGGAGA [hsa-mir-8061]	-0.118	0.542	0.152	0.645	0.449
GAAGCCUUGAUCAGAAGCUAGGAAGGCUUC [hsa-mir-4762]	1.95	0.782	0.433	0.654	0.593
GCUUUCUGUGGUCAGAAAGAAAAGCAAGU [hsa-mir-520f]	1.15	0.636	0.704	0.758	0.76
CGUAGGCGUUAUGAUUUCUGACCUAUG [hsa-mir-379]	-0.994	-0.513	-0.261	0.0365	0.473
AAUUUUCUCUUGUCUAAAAGAAAAGAACG [hsa-mir-521-2]	-0.762	-0.905	-0.0994	-0.996	-0.765
UAAUAGCAAUCCUUAAAUGCCAUUA [hsa-mir-4477b]	-0.537	-0.947	-0.0844	-1.24	-1.16
GUGGCUUGUGGCUGAGUGUCACGCUGC [hsa-mir-6068]	0.217	-0.567	-0.233	-0.254	0.225
AUGUGAUGUGAGCAGAUGGUUCUCACU [hsa-mir-6758]	-0.46	-0.532	-0.346	-0.621	0.176
CCCUAGGACUUACUUGUGCAGGG [hsa-mir-4253]	-0.421	-0.256	-0.403	-0.303	-0.69
CGGCGGCGGCGGCGGCGGCGGCGGCGGCGGCGGCGGCGGCGGCGGCGG [G4_r(CGG)16]	-0.145	8.23	9.63	6.82	5.03
GUGUUGGGUAUAAGUAACA [hsa-mir-1270]	-0.877	-0.205	0.157	0.257	0.457

Sequence	pull-down binding Z-score [1]	pull-down binding Z-score [2]	pull-down binding Z-score [3]	pull-down binding Z-score [4]	pull-down binding Z-score [5]
GCAGUGUCGUGGUCACAGCUUGCUGC [hsa-mir-1273h]	1.45	-0.396	-0.171	-0.0941	1.12
AGUAUUUUAAUCAUAGAUUGUAUUUAGUUAGUUUUUAAUACU [hsa-mir-4637]	-0.0232	-0.732	0.157	-0.955	-0.965
UUCAUUCAUUCGUUUGCACAUUCGGUGAA [hsa-mir-493]	0.183	-0.556	-0.21	-0.736	-0.394
CUCAGAGGGCUGAAGUGGUUGUGGGGAGGGGCUUCUGGG [hsa-mir-4296]	1.39	4.7	4.91	4.83	4.01
ACCCAGGACUCUUUCAUGACCA [hsa-mir-665]	-0.54	-0.0474	0.144	0.101	0.384
GGAGCUGGCUGCUGGCCUCAGUUCU [hsa-mir-5001]	-1.38	-0.269	-0.449	0.0865	1.05
AAGGCCAGGACCCGCUGACCCAU [hsa-mir-6872]	-1.17	0.148	-0.0792	0.411	0.567
GCCUCUUCUCCAUGAGAGGC [hsa-mir-885]	1.74	-0.689	-0.322	-1.07	-1.37
AGUGUGCAGUCAUCCACACA [hsa-mir-4731]	-0.603	-0.32	-0.196	-0.519	-0.401
CUGGAGUCGCCUGAGUCAUCACUCAG [hsa-mir-3065]	-0.66	-0.142	-0.276	0.0597	0.525
AAUUUUUUUUUAAUUUAAAAAAUU [hsa-mir-3938]	0.843	-0.808	0.127	-1.13	-1.36
CUUUUAUAUCAAGGCACAUAAAAG [hsa-mir-3910-1]	-1.7	-0.493	-0.271	-0.626	-1.17
CUGAGCUGGGUACUGCCUGUUCAG [hsa-mir-589]	0.263	0.697	0.311	0.518	0.0632
CACUGAUUCAGUAAAAUACUCAGUG [hsa-mir-891a]	-0.252	-0.707	-0.845	-1.09	-1.35
UGUUAGUGUUCAAGUCUACA [hsa-mir-4802]	0.156	-0.747	-0.398	-0.509	-0.255
UGAAUAUGUAAUAUAAGUGUAUUG [hsa-mir-450b]	0.397	0.214	0.32	0.261	-0.284
AUGAGAAAUUGGUUUCAA [hsa-mir-8063]	1.5	-0.191	-0.245	-0.161	-0.557
CAUGCAGCAUGCUUGUCUG [hsa-mir-767]	-0.359	-0.275	-0.377	-0.247	0.0549
UUAUACCUGAUGCUCACGUAUAA [hsa-mir-208a]	-0.85	0.398	-0.0463	0.187	-0.742
CCAAAGAAACUUUUUUGG [hsa-mir-6079]	-0.295	-0.414	-0.557	-0.761	-1.1
AUCAAAGUGGGGACUCAUGGGGAGAG [hsa-mir-4284]	0.195	3.11	1.43	2.65	1.07
GGGUUGCAUCCUAAGCUGUGCUGGAGCUUCCC [hsa-mir-623]	-0.84	0.567	0.384	0.877	0.682
GGGAAGGAGAAGGGACGCUUCCC [hsa-mir-3127]	2.68	0.262	0.167	0.268	0.895
GGAGACACUUUUACUAUAUAUAGUGGCUCC [hsa-mir-3156-1]	-0.0968	-1.09	-0.555	-1.5	-1.51
